# Laboratory results: the Immune Epitope Database (IEDB)
# Tests used:
# HLA-A*25:01 = assay: IEDB peptide-MHC binding, purified MHC/competitive/fluorescence; ≥ and ≤ were set here for values at or beyond the usual limits of such assays; details: source organism: Mus musculus
# HLA-A*01:01 [1] = assay: as above; details: source organism: Mus musculus
# HLA-A*02:01 [2] = assay: IEDB peptide-MHC binding, cellular MHC/competitive/fluorescence; ≥ and ≤ were set here for values at or beyond the usual limits of such assays; details: source organism: Mycobacterium tuberculosis
# HLA-A*80:01 = assay: IEDB peptide-MHC binding, purified MHC/direct/fluorescence; filed as Kd, often an IC50 or EC50 that approximates it; ≥ and ≤ were set here for values at or beyond the usual limits of such assays
# HLA-A*02:03 [3] = assay: IEDB peptide-MHC binding, purified MHC/competitive/fluorescence; filed as Kd, often an IC50 or EC50 that approximates it; ≥ and ≤ were set here for values at or beyond the usual limits of such assays
# HLA-A*26:02 = assay: as above; details: source organism: Vaccinia virus WR
# HLA-B*27:05 [4] = assay: as above; details: source organism: Vaccinia virus WR
# HLA-A*01:01 [5] = assay: as above; details: source organism: Vaccinia virus WR
# HLA-A*02:06 [6] = assay: as above
# HLA-B*15:01 [7] = assay: as above
# HLA-A*26:01 = assay: as above
# HLA-B*57:01 = assay: as above; details: source organism: Vaccinia virus WR
# HLA-A*02:01 [8] = assay: as above
# HLA-A*26:03 = assay: as above
# HLA-B*35:01 = assay: as above; details: source organism: Vaccinia virus WR
# HLA-A*30:01 [9] = assay: IEDB peptide-MHC binding, purified MHC/competitive/radioactivity; filed as Kd, often an IC50 or EC50 that approximates it; ≥ and ≤ were set here for values at or beyond the usual limits of such assays; details: source organism: Vaccinia virus WR
# HLA-B*48:01 = assay: IEDB peptide-MHC binding, purified MHC/direct/fluorescence; filed as Kd, often an IC50 or EC50 that approximates it; ≥ and ≤ were set here for values at or beyond the usual limits of such assays; details: source organism: Camelpox virus M-96
# HLA-B*08:02 = assay: as above
# HLA-A*03:01 = assay: as above
# HLA-B*40:01 = assay: as above
# HLA-B*15:17 = assay: as above; details: source organism: Camelpox virus M-96
# HLA-B*46:01 = assay: as above
# HLA-B*07:02 = assay: as above
# HLA-A*68:02 = assay: as above; details: source organism: Camelpox virus M-96
# HLA-A*69:01 = assay: as above
# HLA-B*58:01 = assay: as above
# HLA-A*11:01 = assay: as above; details: source organism: Camelpox virus M-96
# HLA-A*31:01 = assay: as above; details: source organism: Camelpox virus M-96
# HLA-A*30:01 [10] = assay: as above; details: source organism: Bacillus cereus NVH0597-99
# HLA-A*01:01 [11] = assay: as above
# HLA-A*02:03 [12] = assay: as above; details: source organism: Influenza A virus H3N2
# HLA-A*24:02 = assay: as above; details: source organism: Influenza A virus (A/turkey/Minnesota/1200/1980(H7N3))
# HLA-B*27:05 [13] = assay: as above; details: source organism: Influenza A virus (A/turkey/Minnesota/1200/1980(H7N3))
# HLA-A*02:19 = assay: as above; details: source organism: Influenza A virus H3N2
# HLA-A*02:12 = assay: as above; details: source organism: Influenza A virus H3N2
# HLA-A*02:06 [14] = assay: as above; details: source organism: Influenza A virus H3N2
# HLA-B*15:01 [15] = assay: as above; details: source organism: Influenza A virus (A/turkey/Minnesota/1200/1980(H7N3))
# HLA-B*08:01 = assay: as above; details: source organism: Influenza A virus (A/turkey/Minnesota/1200/1980(H7N3))
# HLA-A*02:11 = assay: as above; details: source organism: Influenza A virus H3N2
# HLA-A*02:01 [16] = assay: as above; details: source organism: Influenza A virus (A/Puerto Rico/8/34/Mount Sinai(H1N1))
# HLA-B*44:02 = assay: as above; details: source organism: Influenza A virus (A/turkey/Minnesota/1200/1980(H7N3))
# HLA-A*30:01 [17] = assay: IEDB peptide-MHC binding, purified MHC/competitive/fluorescence; filed as Kd, often an IC50 or EC50 that approximates it; ≥ and ≤ were set here for values at or beyond the usual limits of such assays; details: source organism: Human immunodeficiency virus 1
# HLA-B*39:01 = assay: as above; details: source organism: Human immunodeficiency virus 1
# [18] = source organism: Vaccinia virus WR
# [19] = source organism: Camelpox virus M-96
# [20] = source organism: Bacillus anthracis
# [21] = source organism: Influenza A virus (A/turkey/Minnesota/1200/1980(H7N3))
# [22] = source organism: Human immunodeficiency virus 1
sequence,measurement,setting,value
FSSCPVAY,IC50,HLA-A*25:01,≥ 20000 nM
same,IC50,HLA-A*01:01 [1],1940 nM
AQLLTEFAI,IC50,HLA-A*02:01 [2],25000 nM
RVERIKSEY,Kd,HLA-A*80:01; source organism: Yellow fever virus,33.8 nM
KVFDKSLLY,Kd,HLA-A*02:03 [3]; [18],≥ 20000 nM
same,Kd,HLA-A*26:02,1990 nM
same,Kd,HLA-B*27:05 [4],≥ 20000 nM
same,Kd,HLA-A*01:01 [5],2480 nM
same,Kd,HLA-A*02:06 [6]; [18],3100 nM
same,Kd,HLA-B*15:01 [7]; [18],374 nM
same,Kd,HLA-A*26:01; [18],1750 nM
same,Kd,HLA-B*57:01,424 nM
same,Kd,HLA-A*02:01 [8]; [18],≥ 20000 nM
same,Kd,HLA-A*26:03; [18],≥ 20000 nM
same,Kd,HLA-B*35:01,8.2 nM
same,Kd,HLA-A*30:01 [9],71 nM
same,Kd,HLA-B*48:01,≥ 20000 nM
same,Kd,HLA-B*08:02; source organism: Variola virus,≥ 20000 nM
same,Kd,HLA-A*03:01; [19],35 nM
same,Kd,HLA-B*40:01; [19],≥ 20000 nM
same,Kd,HLA-B*15:17,2.3 nM
same,Kd,HLA-B*46:01; [19],≥ 20000 nM
same,Kd,HLA-B*07:02; [19],≥ 20000 nM
same,Kd,HLA-A*68:02,≥ 20000 nM
same,Kd,HLA-A*69:01; [19],≥ 20000 nM
same,Kd,HLA-B*58:01; source organism: Variola virus,5 nM
same,Kd,HLA-A*11:01,4 nM
same,Kd,HLA-A*31:01,2760 nM
TTLRYPIGK,Kd,HLA-A*80:01; [20],≥ 20000 nM
same,Kd,HLA-A*30:01 [10],81 nM
same,Kd,HLA-A*01:01 [11]; [20],≥ 20000 nM
VTTEVAFGL,Kd,HLA-A*02:03 [12],517 nM
same,Kd,HLA-B*08:02; source organism: Influenza A virus H3N2,≥ 20000 nM
same,Kd,HLA-A*24:02,≥ 20000 nM
same,Kd,HLA-A*03:01; [21],≥ 20000 nM
same,Kd,HLA-B*40:01; source organism: Influenza A virus (A/Puerto Rico/8/34/Mount Sinai(H1N1)),15000 nM
same,Kd,HLA-B*27:05 [13],≥ 20000 nM
same,Kd,HLA-A*02:19,656 nM
same,Kd,HLA-A*02:12,186 nM
same,Kd,HLA-B*46:01; [21],≥ 20000 nM
same,Kd,HLA-A*01:01 [11]; [21],≥ 20000 nM
same,Kd,HLA-B*07:02; [21],≥ 20000 nM
same,Kd,HLA-A*02:06 [14],≤ 1 nM
same,Kd,HLA-B*15:01 [15],≥ 20000 nM
same,Kd,HLA-B*08:01,≥ 20000 nM
same,Kd,HLA-A*69:01; [21],≥ 20000 nM
same,Kd,HLA-B*58:01; [21],494 nM
same,Kd,HLA-A*02:11,≤ 1 nM
same,Kd,HLA-A*02:01 [16],69 nM
same,Kd,HLA-B*44:02,≥ 20000 nM
KLKSLYNTV,Kd,HLA-A*30:01 [17],1.3 nM
same,Kd,HLA-A*02:03 [3]; [22],13.1 nM
same,Kd,HLA-B*39:01,≥ 20000 nM
same,Kd,HLA-A*02:06 [6]; [22],17.4 nM
same,Kd,HLA-B*15:01 [7]; [22],≥ 20000 nM
same,Kd,HLA-A*26:01; [22],≥ 20000 nM
same,Kd,HLA-A*02:01 [8]; [22],26.1 nM
same,Kd,HLA-A*26:03; [22],≥ 20000 nM
